Data from the Human Domainome abundance scans (Beltran et al. 2025).
± gives the uncertainty stated by the source.

B1: POU domain, class 2, transcription factor 2, residues 200 to 269; numbered along this chain, P09086 (parent)
chain: LEELEQFARTFKQRRIKLGFTQGDVGLAMGKLYGNDFSQTTISRFEALNLSFKNMCKLKPLLEKWLNDAE

Variants of: B1
Assay: abundance fitness (aPCA) (normalised: wild type 0, dead -1); higher = more abundant; growth selection in yeast, the domain comes from the species named
Settings: Homo sapiens

Point of comparison: LEELEQFARTFKQRRIKLGFTQGDVGLAMGKLYGYDFSQTTISRFEALNLSFKNMCKLKPLLEKWLNDAE [N35Y], abundance fitness 0 ± 0.071. Against it:
- LEELEQFARTFKQRRIKLGFTQGDVGLAMGKLYGPDFSQTTISRFEALNLSFKNMCKLKPLLEKWLNDAE [N35P] — within error, -0.017 ± 0.034
- LEELEQFARTFKQRRIKLGFTQGDVGLAMGKLYGMDFSQTTISRFEALNLSFKNMCKLKPLLEKWLNDAE [N35M] — within error, -0.049 ± 0.053
- LEELEQFARTFKQRRIKLGFTQGDVGLAMGKLYGIDFSQTTISRFEALNLSFKNMCKLKPLLEKWLNDAE [N35I] — within error, -0.15 ± 0.08
- LEELEQFARTFKQRRIKLGFTQGDVGLAMGKLYGWDFSQTTISRFEALNLSFKNMCKLKPLLEKWLNDAE [N35W] — within error, -0.026 ± 0.058
- LEELEQFARTFKQRRIKLGFTQGDVGLAMGKLYGHDFSQTTISRFEALNLSFKNMCKLKPLLEKWLNDAE [N35H] — within error, -0.114 ± 0.12
- LEELEQFARTFKQRRIKLGFTQGDVGLAMGKLYGVDFSQTTISRFEALNLSFKNMCKLKPLLEKWLNDAE [N35V] — within error, -0.091 ± 0.047
- LEELEQFARTFKQRRIKLGFTQGDVGLAMGKLYGRDFSQTTISRFEALNLSFKNMCKLKPLLEKWLNDAE [N35R] — within error, -0.022 ± 0.04
- LEELEQFARTFKQRRIKLGFTQGDVGLAMGKLYGFDFSQTTISRFEALNLSFKNMCKLKPLLEKWLNDAE [N35F] — within error, -0.029 ± 0.077
- LEELEQFARTFKQRRIKLGFTQGDVGLAMGKLYGQDFSQTTISRFEALNLSFKNMCKLKPLLEKWLNDAE [N35Q] — within error, -0.104 ± 0.08
- LEELEQFARTFKQRRIKLGFTQGDVGLAMGKLYGTDFSQTTISRFEALNLSFKNMCKLKPLLEKWLNDAE [N35T] — lower, -0.203 ± 0.067
- LEELEQFARTFKQRRIKLGFTQGDVGLAMGKLYGEDFSQTTISRFEALNLSFKNMCKLKPLLEKWLNDAE [N35E] — within error, 0.106 ± 0.055
- LEELEQFARTFKQRRIKLGFTQGDVGLAMGKLYGSDFSQTTISRFEALNLSFKNMCKLKPLLEKWLNDAE [N35S] — within error, -0.078 ± 0.04
- LEELEQFARTFKQRRIKLGFTQGDVGLAMGKLYGDDFSQTTISRFEALNLSFKNMCKLKPLLEKWLNDAE [N35D] — within error, -0.095 ± 0.069
- LEELEQFARTFKQRRIKLGFTQGDVGLAMGKLYGADFSQTTISRFEALNLSFKNMCKLKPLLEKWLNDAE [N35A] — within error, -0.016 ± 0.05
- LEELEQFARTFKQRRIKLGFTQGDVGLAMGKLYYNDFSQTTISRFEALNLSFKNMCKLKPLLEKWLNDAE [G34Y] — within error, -0.06 ± 0.11
- LEELEQFARTFKQRRIKLGFTQGDVGLAMGKLYPNDFSQTTISRFEALNLSFKNMCKLKPLLEKWLNDAE [G34P] — within error, -0.081 ± 0.053
- LEELEQFARTFKQRRIKLGFTQGDVGLAMGKLYTNDFSQTTISRFEALNLSFKNMCKLKPLLEKWLNDAE [G34T] — within error, -0.105 ± 0.086
- LEELEQFARTFKQRRIKLGFTQGDVGLAMGKLYVNDFSQTTISRFEALNLSFKNMCKLKPLLEKWLNDAE [G34V] — lower, -0.168 ± 0.046
- LEELEQFARTFKQRRIKLGFTQGDVGLAMGKLYWNDFSQTTISRFEALNLSFKNMCKLKPLLEKWLNDAE [G34W] — lower, -0.207 ± 0.044
- LEELEQFARTFKQRRIKLGFTQGDVGLAMGKLYQNDFSQTTISRFEALNLSFKNMCKLKPLLEKWLNDAE [G34Q] — within error, 0.087 ± 0.065
- LEELEQFARTFKQRRIKLGFTQGDVGLAMGKLYRNDFSQTTISRFEALNLSFKNMCKLKPLLEKWLNDAE [G34R] — lower, -0.132 ± 0.038
- LEELEQFARTFKQRRIKLGFTQGDVGLAMGKLYSNDFSQTTISRFEALNLSFKNMCKLKPLLEKWLNDAE [G34S] — within error, -0.062 ± 0.039
- LEELEQFARTFKQRRIKLGFTQGDVGLAMGKLYGNNFSQTTISRFEALNLSFKNMCKLKPLLEKWLNDAE [D36N] — within error, -0.063 ± 0.061
- LEELEQFARTFKQRRIKLGFTQGDVGLAMGKLYGNSFSQTTISRFEALNLSFKNMCKLKPLLEKWLNDAE [D36S] — within error, -0.05 ± 0.041
- LEELEQFARTFKQRRIKLGFTQGDVGLAMGKLYGNCFSQTTISRFEALNLSFKNMCKLKPLLEKWLNDAE [D36C] — within error, -0.12 ± 0.05
- LEELEQFARTFKQRRIKLGFTQGDVGLAMGKLYGNLFSQTTISRFEALNLSFKNMCKLKPLLEKWLNDAE [D36L] — within error, -0.049 ± 0.036
- LEELEQFARTFKQRRIKLGFTQGDVGLAMGKLYGNEFSQTTISRFEALNLSFKNMCKLKPLLEKWLNDAE [D36E] — within error, -0.026 ± 0.059
- LEELEQFARTFKQRRIKLGFTQGDVGLAMGKLYGNQFSQTTISRFEALNLSFKNMCKLKPLLEKWLNDAE [D36Q] — within error, -0.047 ± 0.08
- LEELEQFARTFKQRRIKLGFTQGDVGLAMGKLYGNVFSQTTISRFEALNLSFKNMCKLKPLLEKWLNDAE [D36V] — within error, -0.048 ± 0.038
- LEELEQFARTFKQRRIKLGFTQGDVGLAMGKLYGNIFSQTTISRFEALNLSFKNMCKLKPLLEKWLNDAE [D36I] — within error, -0.057 ± 0.08
- LEELEQFARTFKQRRIKLGFTQGDVGLAMGKLYGNMFSQTTISRFEALNLSFKNMCKLKPLLEKWLNDAE [D36M] — lower, -0.162 ± 0.07
- LEELEQFARTFKQRRIKLGFTQGDVGLAMGKLYGNWFSQTTISRFEALNLSFKNMCKLKPLLEKWLNDAE [D36W] — within error, -0.052 ± 0.048
- LEELEQFARTFKQRRIKLGFTQGDVGLAMGKLYGNHFSQTTISRFEALNLSFKNMCKLKPLLEKWLNDAE [D36H] — within error, -0.003 ± 0.17
- LEELEQFARTFKQRRIKLGFTQGDVGLAMGKLYGNGFSQTTISRFEALNLSFKNMCKLKPLLEKWLNDAE [D36G] — within error, -0.06 ± 0.031
- LEELEQFARTFKQRRIKLGFTQGDVGLAMGKLYGNAFSQTTISRFEALNLSFKNMCKLKPLLEKWLNDAE [D36A] — within error, -0.05 ± 0.042
- LEELEQFARTFKQRRIKLGFTQGDVGLAMGKLYGNFFSQTTISRFEALNLSFKNMCKLKPLLEKWLNDAE [D36F] — within error, 0.017 ± 0.072
- LEELEQFARTFKQRRIKLGFTQGDVGLAMGKLYGNPFSQTTISRFEALNLSFKNMCKLKPLLEKWLNDAE [D36P] — within error, -0.122 ± 0.053
- LEELEQFARTFKQRRIKLGFTQGDVGLAMGKLYGNRFSQTTISRFEALNLSFKNMCKLKPLLEKWLNDAE [D36R] — within error, -0.034 ± 0.04
